pEC50: −log10 of the molar value.
Columns and labels:
[1] = biological target: RRV 26–95 gH-V5/gL-Flag complex (rhesus monkey rhadinovirus (RRV) isolate 26–95)
[2] = biological target: recombinant RRV 26–95 gH-FcStrep/gL (rhesus monkey rhadinovirus (RRV) isolate 26–95); assay: ELISA; RRV 26–95 gH-FcStrep/gL coated at 1μg/ml in PBS; Plxdc1 or Plxdc2 ectodomain 2h at room temperature in 10% FBS in PBS; detected by the C-terminal 6XHis Tag; fit: one site specific binding with Hill slope (Prism6)

Row | Substance | infection of SLK cells by RRV-YFP wt after preincubation with 250nM hPlxdc2-FcStrep, relative to preincubation with FcStrep (Fig 2D) (% of control infection) [1] | infection of rhesus monkey fibroblasts (RF) by RRV-YFP wt after preincubation with 250nM hPlxdc2-FcStrep, relative to preincubation with FcStrep (Fig 2D) (% of control infection) [1] | pEC50 [2]
1 | soluble human Plxdc2, ectodomain (amino acids 31–453) fused to IgG1 Fc with a C-terminal tandem Strep-Tag (from UniProt Q6UX71-1 31-453) (Fc fusion) | 63.5 | 73.9 | –
2 | human Plxdc1 ectodomain (aa 1–425) with a 6XHis Tag (from UniProt Q8IUK5-1 19-425) (domain or fragment) | – | – | 7.65
3 | human Plxdc2 ectodomain (aa 1–453) with a 6XHis Tag (from UniProt Q6UX71-1 31-453) (domain or fragment) | – | – | 8.28

— PMC7959344
